Experimental data: article doi:10.1101/467431

Target: Sca2 full-length passenger domain, construct Sca_(34-1515) (Rickettsia conorii) (UniProt Q92JF7)
Experiment: ITC

Which KD1 (two-site binding model) does the source give for “monomeric actin (LatB-actin) (from UniProt P68135 1-377) (natural protein)” here?
The KD1 (two-site binding model) was 0.19 µM.

What about the KD2 (two-site binding model) of the same substance?
Its KD2 (two-site binding model) is 0.02 µM.

What about the N of the single site model (called unrealistic) of the same substance?
The N of the single site model (called unrealistic) was 0.6.

And the stoichiometry N (actin subunits per Sca (34-1515))?
Its stoichiometry N (actin subunits per Sca (34-1515)) is 2.
